Experimental data from patent US20220227811A1.
Where “and” joins values, the source holds several entries; their conditions need not be identical. Equal values may be shown once. Starred links: 1 amine or outer side, 2 acyl side, 3 side chain; linkers in the order of their positions; H or OH if unused. Positions of bridges follow the written chain, without caps; N, C: chain ends. Non-standard residues stand in square brackets, D forms with d. Chains are numbered I, II in the order given. No end group written: not given here. *: point of attachment. TATA = O=C(CC[*:1])N1CN(C(=O)CC[*:2])CN(C(=O)CC[*:3])C1; d1Nal = N[C@H](Cc1cccc2ccccc12)C(=O)O; Hyp = O=C(O)[C@@H]1C[C@@H](O)CN1; hArg = N=C(N)NCCCC[C@H](N)C(=O)O; tBuAla = CC(C)(C)C[C@H](N)C(=O)O; Nle = CCCC[C@H](N)C(=O)O; Pent4ynoyl = C#CCCC(=O)*

What was measured:
[1] = molecular target: Recombinant human CD137 (R&D systems) (human), Q07011; assay: SPR (Biacore), biotinylated human CD137 captured on a streptavidin chip, BCY13272 as analyte, 1:1 fit (Scrubber)
Chain of Recombinant human CD137 (R&D systems) (human), Q07011 (Q07011 24-186 limits assumed): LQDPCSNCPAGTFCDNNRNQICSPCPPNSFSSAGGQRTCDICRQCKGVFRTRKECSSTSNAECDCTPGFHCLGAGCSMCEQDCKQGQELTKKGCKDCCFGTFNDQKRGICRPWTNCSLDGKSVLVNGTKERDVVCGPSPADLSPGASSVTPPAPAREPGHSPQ

[2] = molecular target: human EphA2 protein (human), P29317; assay: SPR (Biacore), biotinylated human EphA2 captured on a streptavidin chip, BCY13272 as analyte, 1:1 fit (Scrubber)
Chain of human EphA2 protein (human), P29317 (P29317 25-534 limits assumed): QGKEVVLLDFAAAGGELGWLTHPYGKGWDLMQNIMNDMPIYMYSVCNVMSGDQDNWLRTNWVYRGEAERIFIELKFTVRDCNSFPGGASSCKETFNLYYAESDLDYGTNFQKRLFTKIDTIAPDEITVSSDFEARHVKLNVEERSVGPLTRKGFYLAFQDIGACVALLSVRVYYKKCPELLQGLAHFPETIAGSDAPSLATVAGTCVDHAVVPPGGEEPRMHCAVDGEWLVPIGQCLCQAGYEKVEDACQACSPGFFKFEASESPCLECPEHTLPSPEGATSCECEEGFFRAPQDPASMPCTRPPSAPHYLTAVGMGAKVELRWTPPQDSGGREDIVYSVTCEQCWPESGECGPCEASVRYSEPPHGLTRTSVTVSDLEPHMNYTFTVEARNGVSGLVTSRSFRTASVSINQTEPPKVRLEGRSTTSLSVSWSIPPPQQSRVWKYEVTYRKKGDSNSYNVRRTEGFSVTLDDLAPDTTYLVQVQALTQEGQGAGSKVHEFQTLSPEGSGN

[3] = molecular target: CD137 on Jurkat reporter cells (Promega CD137 luciferase reporter assay, kit CS196005), Q07011; assay: cell-based or functional assay
Chain of CD137 on Jurkat reporter cells (Promega CD137 luciferase reporter assay, kit CS196005), Q07011 (Q07011 24-255 limits assumed): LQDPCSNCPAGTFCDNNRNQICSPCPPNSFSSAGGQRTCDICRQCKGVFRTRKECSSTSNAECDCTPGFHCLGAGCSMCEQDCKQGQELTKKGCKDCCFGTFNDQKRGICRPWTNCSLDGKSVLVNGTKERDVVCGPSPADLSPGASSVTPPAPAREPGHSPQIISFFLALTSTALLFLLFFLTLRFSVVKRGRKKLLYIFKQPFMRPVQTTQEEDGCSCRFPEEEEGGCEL

[4] = molecular target: CD137 on human PBMCs (anti-CD3 stimulated, co-culture assay) (human), Q07011; assay: cell-based or functional assay
Chain of CD137 on human PBMCs (anti-CD3 stimulated, co-culture assay) (human), Q07011 (Q07011 24-255): as the sequence (Q07011 24-255 limits assumed) above

[5] = molecular target: human EphA2 protein (human), P29317; assay: SPR (Biacore T200), biotinylated EphA2 captured on a streptavidin chip, peptide as analyte, 1:1 fit

Kd [1]: < 0.0331 nM | koff [1]: < 1e-05 s⁻¹ | kon [1]: 302000 M⁻¹ s⁻¹ | koff [2]: 0.00102 s⁻¹ | kon [2]: 502000 M⁻¹ s⁻¹ | EC50 (nM), CD137 luciferase reporter assay, co-culture with EphA2 cell line A549 [3]: 0.107 nM and 0.132 nM and 0.147 nM | EC50 (nM), CD137 luciferase reporter assay, co-culture with EphA2 cell line HT-29 [3]: 0.567 nM and 0.187 nM and 0.205 nM | EC50 (nM), CD137 luciferase reporter assay, co-culture with EphA2 cell line PC-3 [3]: 0.245 nM and 0.0805 nM and 0.0898 nM | Emax (fold induction over background), CD137 luciferase reporter assay, co-culture with EphA2 cell line A549 [3]: 23.6 fold and 30.2 fold and 25.7 fold | Emax (fold induction over background), CD137 luciferase reporter assay, co-culture with EphA2 cell line HT-29 [3]: 36.5 fold and 26 fold and 36.4 fold | Emax (fold induction over background), CD137 luciferase reporter assay, co-culture with EphA2 cell line PC-3 [3]: 44.5 fold and 44.2 fold and 53 fold | Geo mean EC50/cell line, CD137 luciferase reporter assay, co-culture with EphA2 cell line A549 [3]: 0.127 nM | Geo mean EC50/cell line, CD137 luciferase reporter assay, co-culture with EphA2 cell line HT-29 [3]: 0.279 nM | Geo mean EC50/cell line, CD137 luciferase reporter assay, co-culture with EphA2 cell line PC-3 [3]: 0.117 nM | EC50 (nM) of IL-2 cytokine secretion, human PBMC co-culture with HT-1080 cells (N = 4) [4]: 0.55 nM | EC50 (nM) of IL-2 cytokine secretion, human PBMC co-culture with MC38 cells (N = 5) [4]: 0.79 nM | Kd [5]: 2 nM
B1: EphA2/CD137 heterotandem bicyclic peptide complex BCY13272 (peptide)
peptide 1: A[hArg]DC[Hyp]LVNPLCLEP[d1Nal]WTC
peptide 2: Ac-C[tBuAla]PE[dK](Pent4ynoyl)PYCFADPY[Nle]CA
modifications: linker I:4-I:11-I:18, II:1-II:8-II:15 via TATA; not fully specified (N-terminus, bridges); also: chain 1 N-terminus coupled to N-(acid-PEG3)-N-bis(PEG3-azide) linker, D-Lys(PYA) of chain 2 clicked (triazole) to linker azide arm, complex has a second BCY8928 copy not listed as a chain
